Reference: article PMC2516929, “Yersinia enterocolitica Serum Resistance Proteins YadA and Ail Bind the Complement Regulator C4b-Binding Protein” (PLoS Pathogens, 2008)

How the values were obtained:
[1] = molecular target: T1, Ail of Y. enterocolitica serotype O:3, expressed in trans from pTM100-ail on strain YeO3-c-Ail-OCR (Y. enterocolitica serotype O:3, UniProt Q70AM3 24-178); assay: radioligand binding; 125I-C4bp (or 125I-BSA) with 3x10^8 bacteria in hypotonic 1/3 GVBS (50 mM NaCl), 30 min at 37°C; bacteria pelleted through 20% sucrose; bound as percent of total radioactivity; settings: one partner purified
T1 construct: Ail, Y. enterocolitica serotype O:3, ail gene cloned as 1711 bp PCR fragment into pTM100; GenBank protein CAE53849; Same protein as m5, from a plasmid; also called Ail (complemented); YeO3-c-Ail-OCR/pTM100-ail; source: pTM100-ail (cloned ail gene) in Y. enterocolitica YeO3-c-Ail-OCR (YadA-, Ail-, O-ag-, OC-), on the bacteria; overexpressed
T1 sequence: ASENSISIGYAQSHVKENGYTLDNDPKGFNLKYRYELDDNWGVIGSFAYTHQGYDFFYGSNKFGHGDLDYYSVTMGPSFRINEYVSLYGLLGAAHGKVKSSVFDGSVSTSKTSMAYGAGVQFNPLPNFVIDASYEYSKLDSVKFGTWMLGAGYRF

[2] = molecular target: T2, YadA of Y. enterocolitica serotype O:3 (strain 6471/76), on the bacterial surface (Y. enterocolitica serotype O:3 (strain …, UniProt P31489 26-455)); assay: radioligand binding; 125I-C4bp with 3x10^8 bacteria in 1/3 GVBS with NaCl from 50 to 650 mM; binding as percent of that at 50 mM NaCl; settings: one partner purified
T2 construct: adhesin YadA, Y. enterocolitica 6471/76 serotype O:3, GenBank protein CAA32086; trimeric outer membrane protein; also called YadA (wild type, YeO3); source: endogenous (virulence plasmid pYV), on Y. enterocolitica O:3 strain 6471/76 (YeO3), grown in RPMI 1640 at 37°C
T2 sequence: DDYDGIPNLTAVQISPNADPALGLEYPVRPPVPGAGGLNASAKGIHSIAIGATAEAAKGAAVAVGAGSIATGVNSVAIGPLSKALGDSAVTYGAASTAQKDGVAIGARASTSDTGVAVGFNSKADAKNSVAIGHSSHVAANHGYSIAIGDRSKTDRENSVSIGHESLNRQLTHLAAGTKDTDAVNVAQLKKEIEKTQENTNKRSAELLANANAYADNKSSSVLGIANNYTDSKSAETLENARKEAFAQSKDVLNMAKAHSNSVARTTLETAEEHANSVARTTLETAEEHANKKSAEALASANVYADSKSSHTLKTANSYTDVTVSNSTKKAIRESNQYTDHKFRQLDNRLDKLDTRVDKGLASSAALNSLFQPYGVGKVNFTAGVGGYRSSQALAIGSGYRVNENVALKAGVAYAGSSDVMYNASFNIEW

B1: C4b-binding protein (C4bp) with protein S (complex)
chain 1: NCGPPPTLSFAAPMDITLTETRFKTGTTLKYTCLPGYVRSHSTQTLTCNSDGEWVYNTFCIYKRCRHPGELRNGQVEIKTDLSFGSQIEFSCSEGFFLIGSTTSRCEVQDRGVGWSHPLPQCEIVKCKPPPDIRNGRHSGEENFYAYGFSVTYSCDPRFSLLGHASISCTVENETIGVWRPSPPTCEKITCRKPDVSHGEMVSGFGPIYNYKDTIVFKCQKGFVLRGSSVIHCDADSKWNPSPPACEPNSCINLPDIPHASWETYPRPTKEDVYVVGTVLRYRCHPGYKPTTDEPTTVICQKNLRWTPYQGCEALCCPEPKLNNGEITQHRKSRPANHCVYFYGDEISFSCHETSRFSAICQGDGTWSPRTPSCGDICNFPPKIAHGHYKQSSSYSFFKEEIIYECDKGYILVGQAKLSCSYSHWSAPAPQCKALCRKPELVNGRLSVDKDQYVEPENVTIQCDSGYGVVGPQSITCSGNRTWYPEVPKCEWETPEGCEQVLTGKRLMQCLPNPEDVKMALEVYKLSLEIEQLELQRDSARQSTLDKEL
chain 2: SDAEHCPELPPVDNSIFVAKEVEGQILGTYVCIKGYHLVGKKTLFCNASKEWDNTTTECRLGHCPDPVLVNGEFSSSGPVNVSDKITFMCNDHYILKGSNRSQCLEDHTWAPPFPICKSRDCDPPGNPVHGYFEGNNFTLGSTISYYCEDRYYLVGVQEQQCVDGEWSSALPVCKLIQEAPKPECEKALLAFQESKNLCEAMENFMQQLKESGMTMEELKYSLELKKAELKAKLL
chain 3: ANSLLEETKQGNLERECIEELCNKEEAREVFENDPETDYFYPKYLVCLRSFQTGLFTAARQSTNAYPDLRSCVNAIPDQCSPLPCNEDGYMSCKDGKASFTCTCKPGWQGEKCEFDINECKDPSNINGGCSQICDNTPGSYHCSCKNGFVMLSNKKDCKDVDECSLKPSICGTAVCKNIPGDFECECPEGYRYNLKSKSCEDIDECSENMCAQLCVNYPGGYTCYCDGKKGFKLAQDQKSCEVVSVCLPLNLDTKYELLYLAEQFAGVVLYLKFRLPEISRFSAEFDFRTYDSEGVILYAESIDHSAWLLIALRGGKIEVQLKNEHTSKITTGGDVINNGLWNMVSVEELEHSISIKIAKEAVMDINKPGPLFKPENGLLETKVYFAGFPRKVESELIKPINPRLDGCIRSWNLMKQGASGIKEIIQEKQNKHCLVTVEKGSYYPGSGIAQFHIDYNNVSSAEGWHVNVTLNIRPSTGTGVMLALVSGNNTVPFAVSLVDSTSEKSQDILLSVENTVIYRIQALSLCSDQQSHLEFRVNRNNLELSTPLKIETISHEDLQRQLAVLDKAMKAKVATYLGGLPDVPFSATPVNAFYNGCMEVNINGVQLDLDEAISKHNDIRAHSCPSVWKKTKNS
modifications: 125I label (Iodogen method) in the 125I-C4bp assays; labelled chain and residues not stated
notes: eight CCP domains; the predominant form has seven identical alpha chains; three CCP domains; one beta chain in the predominant form; protein S, human; co-purified with C4bp from plasma ('C4bp with protein S'); also called 125I-C4bp; serum C4bp; source: purified from pooled human plasma (with protein S); copies: 7 + 1 +
B1 was tested, and the “fold C4bp binding capacity against strain YeO3-c-OCR” value [1] was about 4 fold and the “fold decrease of C4bp binding at 100 mM NaCl against 50 mM NaCl” value [2] was 2 fold.
